The data set deals with PriA (Escherichia coli, UniProt P17888 1-732). As to conditions: protein: recombinant; tags: N-terminal His; label: 5'-32P on 3L-98 (strand 2); fork 1:2 1:3; ssDNA lagging arm (strand 2).

B1: Fork 1 (structured_DNA)
DNA 1: GCAAGCCTTCTACAGGTCGACCGTCCATGGCGACTCGAGACCGCAATACGGATAAGGGCTGAGCACGCCGACGAACATTCACCACGCCAGACCACGTA
DNA 2: GACTATCTACGTCCGAGGCTCGCGCCGCAGACTCATTTAGCCCTTATCCGTATTGCGGTCTCGAGTCGCCATGGACGGTCGACCTGTAGAAGGCTTGC
DNA 3: TACGTGGTCTGGCGTGGTGAATGTTCGTCGGCGTGCTC
For B1, the binding signal stood at 91.9 ± 4.1 % fork shifted.

For the origin of these results see publication PMC10175261.
